Measured values: the Immune Epitope Database (IEDB)

What was measured:
Experiment in all cases: IEDB peptide-MHC binding, purified MHC/direct/fluorescence; filed as Kd, often an IC50 or EC50 that approximates it; ≥ and ≤ were set here for values at or beyond the usual limits of such assays
Conditions in all cases: source organism: Vibrio cholerae V52
HLA-A*24:03 = target: HLA-A*24:03
HLA-B*18:01 = target: HLA-B*18:01
HLA-B*27:03 = target: HLA-B*27:03
HLA-B*57:01 = target: HLA-B*57:01
HLA-A*02:19 = target: HLA-A*02:19
HLA-A*26:01 = target: HLA-A*26:01
HLA-A*02:01 = target: HLA-A*02:01
HLA-B*15:01 = target: HLA-B*15:01

Measured: Kd

MGMEQTMSV
≥ 20 µM: all assays above
